Here are results for 14 proteins from US20210238260.

B1: FIXa-I251S/R318Y/R338E/E410N (protein)
chain 1: YNSGKLEEFVQGNLERECMEEKCSFEEAREVFENTERTTEFWKQYVDGDQCESNPCLNGGSCKDDINSYECWCPFGFEGKNCELDVTCNIKNGRCEQFCKNSADNKVVCSCTEGYRLAENQKSCEPAVPFPCGRVSVSQTSKLTR
chain 2: VVGGEDAKPGQFPWQVVLNGKVDAFCGGSIVNEKWIVTAAHCVETGVKITVVAGEHNIEETEHTEQKRNVSRIIPHHNYNAAINKYNHDIALLELDEPLVLNSYVTPICIADKEYTNIFLKFGSGYVSGWGRVFHKGYSALVLQYLRVPLVDRATCLESTKFTIYNNMFCAGFHEGGRDSCQGDSGGPHVTEVEGTSFLTGIISWGEECAMKGKYGIYTKVSRYVNWIKNKTKLT
B2: FIXa-K247N/N249S/R318Y/R338E/E410N (protein)
chain 1: B1 chain 1
chain 2: B1 chain 2 with K67N, N69S, S71I
B3: FIXa-R318Y/R338E/T412A (protein)
chain 1: B1 chain 1
chain 2: B1 chain 2 with S71I, N230E, T232A
B4: FIXa-K247N/N249S/R318Y/R338E/R403E/E410N (protein)
chain 1: B1 chain 1
chain 2: B1 chain 2 with K67N, N69S, S71I, R223E
B5: FIXa-Y155F/K228N/K247N/N249S (protein)
chain 1: B1 chain 1
chain 2: B1 chain 2 with K48N, K67N, N69S, S71I, Y138R, E158R, N230E
B6: FIXa-D104N/K106S/Y155F/K228N/K247N/N249S (protein)
chain 1: B1 chain 1 with D104N, K106S
chain 2: B1 chain 2 with K48N, K67N, N69S, S71I, Y138R, E158R, N230E
B7: FIXa-D104N/K106S/K228N/K247N/N249S (protein)
chain 1: B1 chain 1 with D104N, K106S
chain 2: B1 chain 2 with K48N, K67N, N69S, S71I, Y138R, E158R, N230E
B8: FIXa-A103N/N105S/K247N/N249S/R318Y/R338E/R403E/E410N (protein)
chain 1: B1 chain 1 with A103N, N105S
chain 2: B1 chain 2 with K67N, N69S, S71I, R223E
B9: FIXa-D104N/K106S/I251S/R318Y/R338E/E410N (protein)
chain 1: B1 chain 1 with D104N, K106S
chain 2: B1 chain 2
B10: FIXa-R318Y/R338E/E410S (protein)
chain 1: B1 chain 1
chain 2: B1 chain 2 with S71I, N230S
B11: FIXa-Y155F/K247N/N249S/R318Y/R338E/E410N (protein)
chain 1: B1 chain 1
chain 2: B1 chain 2 with K67N, N69S, S71I
B12: FIXa-Y259F/K265T/Y345T (protein)
chain 1: B1 chain 1
chain 2: B1 chain 2 with S71I, Y79F, K85T, Y138R, E158R, Y165T, N230E
B13: FIXa-K228N/K247N/N249S (protein)
chain 1: B1 chain 1
chain 2: B1 chain 2 with K48N, K67N, N69S, S71I, Y138R, E158R, N230E
B14: FIX of SEQ ID NO: 394, with the replacements R318Y/R338E/T343R (activated, FIXa) (protein)
chain 1: B1 chain 1
chain 2: B1 chain 2 with S71I, T163R, N230E

Changes are numbered by the printed parent chain. In names and notes the source's numbering stands.

The first data set has as its target plasma purified human antithrombin III (AT-III), as complex with unfractionated heparin. As to the kind of experiment: ratio of K0.5 to Catalyst Biosciences WT FIXa, AT-III/UFH inhibition.
B1: the K0.5-mut/K0.5-wt stood at 303.

As to B2, the K0.5-mut/K0.5-wt came out at 78.3.

Regarding B3, the K0.5-mut/K0.5-wt is 396.

As to B4, the K0.5-mut/K0.5-wt is 418.

Take B5: the K0.5-mut/K0.5-wt amounted to 1.4.

For the protein B6, the K0.5-mut/K0.5-wt came out at 1.6.

As to B7, the K0.5-mut/K0.5-wt worked out at 2.1.

Consider B8, for which the K0.5-mut/K0.5-wt was found to be 129.

Consider B9, for which the K0.5-mut/K0.5-wt was determined as 464.

Consider B10, for which the K0.5-mut/K0.5-wt amounted to 279.

Regarding B11, the K0.5-mut/K0.5-wt is 200.

On to B12, for which the K0.5-mut/K0.5-wt amounted to 0.3.

As to B13, the K0.5-mut/K0.5-wt amounted to 4.4.

For a further data set, the target named is Factor X (FX), P00742.
Sequence of Factor X (FX), P00742 (P00742 whole entry, looked up): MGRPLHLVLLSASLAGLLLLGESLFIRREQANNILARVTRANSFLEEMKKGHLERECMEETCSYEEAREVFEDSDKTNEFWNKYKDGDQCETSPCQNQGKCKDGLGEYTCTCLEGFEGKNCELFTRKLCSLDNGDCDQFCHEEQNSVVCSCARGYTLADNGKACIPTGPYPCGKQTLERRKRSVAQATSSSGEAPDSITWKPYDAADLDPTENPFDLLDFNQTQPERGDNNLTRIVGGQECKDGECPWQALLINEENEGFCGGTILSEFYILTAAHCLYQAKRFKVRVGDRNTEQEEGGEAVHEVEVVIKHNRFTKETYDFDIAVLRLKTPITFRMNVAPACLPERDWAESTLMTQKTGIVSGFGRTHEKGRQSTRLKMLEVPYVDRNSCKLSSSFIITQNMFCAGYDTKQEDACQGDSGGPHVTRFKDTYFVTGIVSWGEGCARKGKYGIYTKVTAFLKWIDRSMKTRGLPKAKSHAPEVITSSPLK
Assay: not given
The protein B14 had a Cofactor-Dependent Indirect kcat/KM of 1.2e+08 M⁻¹ s⁻¹; a Fold Change, In Vitro Assays: Pro-coagulant Activity of 2.8 fold; a Fold Increase over BeneFIX FIX (Cofactor-Dependent Indirect kcat/KM) of 2.8 fold.

For the protein B1, the “% of WT kcat/KM” value stood at 849%; the turnover number (kcat) (usually the number of substrate molecules converted per active site and unit of time at saturation) was 6.2 s⁻¹; the catalytic efficiency (kcat/KM) (in general, the turnover number divided by the Michaelis constant) was 3.9e+08 M⁻¹ s⁻¹.

Take B2: the “% of WT kcat/KM” value came out at 501%, the catalytic constant (kcat) amounted to 3.8 s⁻¹ and the kcat/KM is 2.3e+08 M⁻¹ s⁻¹.

Regarding B3, the Michaelis-Menten constant (KM) (as a rule, the concentration of substrate that gives half-maximal velocity) came to 0.0235 µM and the kcat of FX activation by FIXa (Xase complex with FVIIIa, PC/PS vesicles, Ca2+) was 7 s⁻¹.

Regarding B4, the “% of WT kcat/KM” value is on record as 331%, the kcat amounted to 5.8 s⁻¹ and the catalytic efficiency (kcat/KM) is 1.5e+08 M⁻¹ s⁻¹.

Regarding B5, the KM turned out to be 0.0792 µM and the kcat of FX activation by FIXa (Xase complex with FVIIIa, PC/PS vesicles, Ca2+) turned out to be 4.3 s⁻¹.

On to B6, for which the “% of WT kcat/KM” value is 137%; the kcat turned out to be 4.7 s⁻¹; the kcat of FX activation by FIXa (Xase complex with FVIIIa, PC/PS vesicles, Ca2+) amounted to 4.7 s⁻¹; the kcat/KM amounted to 6.3e+07 M⁻¹ s⁻¹.

As to B7, the kcat was found to be 1.7 s⁻¹ and the kcat of FX activation by FIXa (Xase complex with FVIIIa, PC/PS vesicles, Ca2+) is 1.7 s⁻¹.

Take B8: the “% of WT kcat/KM” value is given as 324%, the kcat is 4.1 s⁻¹ and the kcat/KM stood at 1.5e+08 M⁻¹ s⁻¹.

Turning to B11, the “% of WT kcat/KM” value was determined as 717%, the kcat turned out to be 4.3 s⁻¹ and the specificity constant (kcat/KM) was 3.3e+08 M⁻¹ s⁻¹.

The next data set deals with Factor X, P00742.
Sequence of Factor X, P00742 (P00742 whole entry, looked up): as above
Assay: not given
Regarding B1, the “% of WT kcat/KM” value was 851%, the KM turned out to be 0.0162 µM and the kcat/KM amounted to 3.8e+08 M⁻¹ s⁻¹.

In the case of B2, the “% of WT kcat/KM” value came out at 516%, the Michaelis constant (KM) amounted to 0.0166 µM and the kcat/KM was determined as 2.3e+08 M⁻¹ s⁻¹.

Take B3: the “% of WT kcat/KM” value was found to be 661%, the catalytic constant (kcat) stood at 7 s⁻¹ and the kcat/KM came out at 3e+08 M⁻¹ s⁻¹.

On to B4, for which the “% of WT kcat/KM” value stood at 341%, the KM is 0.0392 µM and the kcat/KM turned out to be 1.5e+08 M⁻¹ s⁻¹.

For B5, the “% of WT kcat/KM” value came out at 118%, the catalytic constant (kcat) amounted to 4.3 s⁻¹ and the kcat/KM stood at 5.3e+07 M⁻¹ s⁻¹.

As to B6, the “% of WT kcat/KM” value is 142%, the KM stood at 0.0753 µM and the catalytic efficiency (kcat/KM) came to 6.3e+07 M⁻¹ s⁻¹.

Take B8: the “% of WT kcat/KM” value is 232%, the KM was found to be 0.0397 µM and the catalytic efficiency (kcat/KM) was found to be 1e+08 M⁻¹ s⁻¹.

Turning to B9, the “% of WT kcat/KM” value is 300%, the KM is 0.0243 µM and the kcat/KM is 1.3e+08 M⁻¹ s⁻¹.

For the protein B10, the “% of WT kcat/KM” value came to 730%, the Michaelis-Menten constant (KM) was determined as 0.0164 µM and the kcat/KM stood at 3.3e+08 M⁻¹ s⁻¹.

B11: the “% of WT kcat/KM” value is 674%, the KM stood at 0.0153 µM and the kcat/KM was found to be 3e+08 M⁻¹ s⁻¹.

On to B13, for which the “% of WT kcat/KM” value was found to be 86%, the Michaelis constant (KM) was 0.0945 µM and the kcat/KM is 3.8e+07 M⁻¹ s⁻¹.

Another data set deals with T1, Factor VIIIa (FVIIIa), P00451.
T1 chain: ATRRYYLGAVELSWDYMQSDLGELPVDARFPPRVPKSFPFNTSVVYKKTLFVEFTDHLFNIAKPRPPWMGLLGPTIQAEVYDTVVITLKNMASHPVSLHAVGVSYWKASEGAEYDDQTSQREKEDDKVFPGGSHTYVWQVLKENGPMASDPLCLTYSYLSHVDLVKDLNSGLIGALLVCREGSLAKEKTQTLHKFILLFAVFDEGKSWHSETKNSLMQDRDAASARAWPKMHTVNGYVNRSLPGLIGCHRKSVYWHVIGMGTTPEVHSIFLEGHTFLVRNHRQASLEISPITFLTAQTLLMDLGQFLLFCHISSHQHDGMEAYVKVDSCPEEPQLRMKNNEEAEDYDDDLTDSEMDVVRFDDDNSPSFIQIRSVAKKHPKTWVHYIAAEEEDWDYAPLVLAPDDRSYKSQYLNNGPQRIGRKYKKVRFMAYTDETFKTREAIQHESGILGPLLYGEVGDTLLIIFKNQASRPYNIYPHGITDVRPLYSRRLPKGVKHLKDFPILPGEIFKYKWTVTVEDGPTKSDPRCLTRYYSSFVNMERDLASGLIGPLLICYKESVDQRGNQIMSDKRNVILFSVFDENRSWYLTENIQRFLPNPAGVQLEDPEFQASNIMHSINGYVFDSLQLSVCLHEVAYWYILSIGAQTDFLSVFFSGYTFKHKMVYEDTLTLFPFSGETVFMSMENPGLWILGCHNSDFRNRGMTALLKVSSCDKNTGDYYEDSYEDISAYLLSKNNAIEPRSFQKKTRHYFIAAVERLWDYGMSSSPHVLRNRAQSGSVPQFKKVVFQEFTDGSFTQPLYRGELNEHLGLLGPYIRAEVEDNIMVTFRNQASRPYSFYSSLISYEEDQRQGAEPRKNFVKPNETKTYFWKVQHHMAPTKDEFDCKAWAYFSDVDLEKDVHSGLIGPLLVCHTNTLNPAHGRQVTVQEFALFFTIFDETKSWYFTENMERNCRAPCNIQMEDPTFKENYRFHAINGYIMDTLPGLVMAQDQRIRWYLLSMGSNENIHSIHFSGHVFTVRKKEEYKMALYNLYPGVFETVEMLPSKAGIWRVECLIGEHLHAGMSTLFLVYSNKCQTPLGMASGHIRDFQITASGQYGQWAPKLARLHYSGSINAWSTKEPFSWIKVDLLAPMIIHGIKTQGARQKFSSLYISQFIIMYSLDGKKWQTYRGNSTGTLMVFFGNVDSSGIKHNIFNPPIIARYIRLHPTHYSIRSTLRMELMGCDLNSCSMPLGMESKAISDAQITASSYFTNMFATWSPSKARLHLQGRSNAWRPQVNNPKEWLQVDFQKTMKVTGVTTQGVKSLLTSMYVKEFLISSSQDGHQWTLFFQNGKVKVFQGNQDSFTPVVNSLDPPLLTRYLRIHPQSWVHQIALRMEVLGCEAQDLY
Assay: not given
B14 showed an FIX activity, mean, Test 1, FVIIIa 0 ng/mL (no cofactor, baseline) of 1.24; an FIX activity, mean, Test 1, FVIIIa 5 ng/mL of 278; an FIX activity, mean, Test 2, FVIIIa 0 ng/mL (no cofactor, baseline) of 1.25; an FIX activity, mean, Test 2, FVIIIa 10 ng/mL of 479. The protein further gave an FIX activity, mean, Test 3, FVIIIa 0 ng/mL (no cofactor, baseline) of 1.28; an FIX activity, mean, Test 3, FVIIIa 15 ng/mL of 622; a Fold-increase after FVIIIa addition, Test 1 (5 ng/mL) of 225 fold; a Fold-increase after FVIIIa addition, Test 2 (10 ng/mL) of 384 fold. Besides, the Fold-increase after FVIIIa addition, Test 3 (15 ng/mL) is 486 fold; the Ratio (CB2679d vs BeneFIX FIX) of FIX activity, Test 1, FVIIIa 0 ng/mL (no cofactor) is 1.3; the Ratio (CB2679d vs BeneFIX FIX) of FIX activity, Test 1, FVIIIa 5 ng/mL was 2; the Ratio (CB2679d vs BeneFIX FIX) of FIX activity, Test 2, FVIIIa 0 ng/mL (no cofactor) was 1.4. In addition, the Ratio (CB2679d vs BeneFIX FIX) of FIX activity, Test 2, FVIIIa 10 ng/mL was 2; the Ratio (CB2679d vs BeneFIX FIX) of FIX activity, Test 3, FVIIIa 0 ng/mL (no cofactor) was found to be 1.3; the Ratio (CB2679d vs BeneFIX FIX) of FIX activity, Test 3, FVIIIa 15 ng/mL worked out at 2.

The target of a further data set is plasma purified human AT-III (antithrombin III). Kind of data set: AT-III/UFH inhibition K0.5, ratio to Catalyst Biosciences WT FIXa.
Regarding B1, the K0.5-mut/K0.5-wt was 303.

With B2, the K0.5-mut/K0.5-wt was 78.3.

Consider B3, for which the K0.5-mut/K0.5-wt came out at 396.

In the case of B4, the K0.5-mut/K0.5-wt was 418.

B5: the K0.5-mut/K0.5-wt was 1.4.

For B6, the K0.5-mut/K0.5-wt stood at 1.6.

On to B7, for which the K0.5-mut/K0.5-wt was found to be 2.1.

Regarding B8, the K0.5-mut/K0.5-wt was 129.

For B9, the K0.5-mut/K0.5-wt was 464.

Take B10: the K0.5-mut/K0.5-wt is 279.

Take B11: the K0.5-mut/K0.5-wt came to 200.

Consider B12, for which the K0.5-mut/K0.5-wt was found to be 0.3.

Regarding B13, the K0.5-mut/K0.5-wt was 4.4.
